The results in this text go back to the domain aggregation screens of Martell et al. (2025).

A short description of the data set: soluble fraction after stress (log2 fold change); higher = more stays soluble; pooled small domains, quantitative proteomics. To be noted: stress: 50 degC. The method in brief: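 After stress at 50°C, the amount of each protein still soluble was measured. This was done on pooled custom libraries of small protein domains, using high-throughput quantitative proteomics. The figure given is a base-two log fold change and stands for aggregation propensity, with higher values meaning more protein stays in solution.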

Take “HMGAPVIYELTAESAAGQRIDKYLSGQLADLSRSYLQKLLKDGGVEVNKKPVKSNYKLSEGDQIRLEVPEA”: the “soluble fraction (log2)” value stood at 0.207.

On to “HMDRKFFFNEQYEDYINSDLKVKFMNDSGSKKSFQGELTKVTPSDLFLESEKESVKVPFSSIIQANLI”, for which the “soluble fraction (log2)” value is -0.147. Then “HMRTIGDSVYEKIKYDIVHLTLKPGEKLSEASLAEKYGISKAPIRVALRKLQEEGLIVIRPQSGSIVSP”, with -0.568. To “HMTVKEYNRAVDEYSDAVWRFIRGNLRDEDRANDIVQDSFEKLWMHVTEIDYSVAKSWLFSTAYNNMIDI” belongs -0.277. Then “HMEPREALDGLISERGETYASISRLLGRNSAYIQQFIKRGSPARLDQSDIALLALHFDVPVEMLGGKE”, with -0.42; and “HMIQLKEHDVVRLRETIVENDEKIPAGTRGVVLSVYDGGRAFAVEVADDRAASAIITAFRDQLEVY”, with -0.136; and “HMDKVSYALGLGIGRQLTDMGAKDLNIDDFAQAIKDVLAGGEVKLSDAEAQTIVRNFFDEQEKKQRA”, with -0.0034. Regarding “HMDSLELADEVGRVSEALQELRPHQREVLELSLVHGRSHQQISEKTGLALGTVKSHARRGLMRVREMLGV”, the “soluble fraction (log2)” value is -0.445. To “HMEHIEVDTSHIAVGSKVKHKAFGLGEITDKGNTYVFVKFDGQAIPKKFQFPGAFTQGFLTK” belongs 0.144. For the sequence “HMNGEDVTDAIRLPQISQYASVVSAYPGVRAFLLEMQRDFARKGSVIMDGRDIGTVVLPEAEVKIFLT”, the “soluble fraction (log2)” value is -0.025. On to “HMDDHKQHLIDFYHSRKRMPTYTEMMALFGYKSKNAVARLVEKMIDAGIVTKDKLGKLLPTTLFDSVPL”, for which the “soluble fraction (log2)” value stood at 0.0577.

On to “HMLTSIDQMLKLAMPDSDITVSKMNGLILLTGTVKAPEDAAEAERLVQAFSAPPPGQPPVTVVSRLRTA”, for which the “soluble fraction (log2)” value was found to be 0.0549. For the sequence “HMKVLFLESIEGSASMGEIKDVANGYARNFLFPNGFAVPATPKNLKNVEELQAKELEIQTERDNWAA”, the “soluble fraction (log2)” value is -0.0454. For “HMSATPQRMTIIDALDSSGKNLSAYELLDLLNDKGQLFNISTIYRVLDFWIEMGIVHKINSSNTYL”, the “soluble fraction (log2)” value was found to be 0.125. For “HMEETEVPPVTGYEQSKASEVLTGKGLIPDIITVADEETAAGYVIRTDPASGEKVPSGTTVKVYVSSGP”, the “soluble fraction (log2)” value came to 0.159.

Take “HMSINIDEEKKILGPNADQIIKGITTWGQGLVSKGIWSDADFEEFKIFAATGNGINALNKVRKYY”: the “soluble fraction (log2)” value is -0.255. To “HMDRVDGWLHDGKLYLRVVDYKTGKKSFDLAELRYGLGLQMLLYLFTLKEEGQMLFGGHEIVPAGVL” belongs -0.391; to “HMLIPADETEAKVLSVLSREPLHVDEIRNQAGLPIEKISATLALMELKGMVRQVGGMNYVSV”, 0.122. Then “HMQNNWFYEENGQRKGPVSENEMVQFIKSSVISHGTSVWKQGFPDWLKVENTDLRVHLDNSAP”, with 0.136; and “HMQKIEKVDYGTFLKMIENGEIDQVNLTEKKISFTTDKDAETVYETGRVEDPNIVDRLYQADVEFTQEI”, with 0.207; and “HMHPEETVNLILDAAFRLFLEKGYEHTSIQDIIGQLGGLSKGAIYHHFNSKEDILIAVTDRMTA”, with -1.81. Then “HMPRSREVHVEPGMVLEDVTTGFVGAVIRTEKSAGIYVIELEDRRGRRRSFPLGGGFWLDGRPIIALPPLP”, with -1.19; and “HMSSIRDVVPEGLLSDREKLVLVLAFDRDLDGPDMARTLGISANTVRVLKARALKKLRQAGIQP”, with -0.957. On to “HMSALTDQQQRVLELVASGLVYKEVAAALSISEPTVKYHMGNILTRLHVKNRAQAIAAARQQGLL”, for which the “soluble fraction (log2)” value was -1.21. As for “HMSQLSDEQELRDIARGIIEGNPNEAEKYRAGRTGLLGFFVGKLMAETEGKANPRLASRILKELLE”, the “soluble fraction (log2)” value was -0.0477. Then “HMENTGFKDKKGNYIFDGDIVKDILGNIMKVEFKHFKWQLIPLNKTAFNMPMVDWLDLETETLNAEIIGN”, with -2.13; and “HMDDPQAELLARAVRRVALAAAERTRRNEYGGVYLGLFRQFGISSYRRTPPARLHEALEWLERWRGDLM”, with -0.0675. For “HMSDIDHIAGRRIRQARLNAGMTLETLASQAGISKALLSKIENSKVSSPLATFSKISKVLGVPLSDLLKE”, the “soluble fraction (log2)” value is -0.056. On to “HMKASTRELLDFVLSQRGVSTASVAKALGISVQNASTRLKKLSNEGLIIRSEASSLTGGIEFLYS”, for which the “soluble fraction (log2)” value was -0.799. With “HMELSTQERIQILLEILNQREIISFSQTLRKKEGKKGVVVTFLASLELAKDGYVTLVQNKSDQIYLRSN”, the “soluble fraction (log2)” value is -0.7.

On to “HMKEETYHYTVRYVTDGGDILASYEGKATKDSVFFPEVKTFDGYTAVRGEEPMFHLVSDHAVFQIVYQKNG”, for which the “soluble fraction (log2)” value was -0.147. For “HMSEYVIVTGEKVNLRVGPGMDYEIAGQVVKGDKLELLASEGDWSKVKTGSGSIYYISSSLVQKA”, the “soluble fraction (log2)” value is -0.238. As to “HMLAGKTYEVQTESGGKWTLVASYNVKSQAIQQAQALLESHKYSGVKVIAESDRKGEEVIFNEQSEVT”, the “soluble fraction (log2)” value is -0.0442.

As for “HMADKNIIGVLSAADNLGKVRITTANGEKYIITVPDGLSDIVKTYWEEEVSVKYVIEKRRKILVDIDG”, the “soluble fraction (log2)” value is -1.67. “HMDVLFGNRLRQLLDERNISQAHFADRIGVSRSRMNNYVAQRSEPDYATLIRIANTLDTSIDFLLGKS”: the “soluble fraction (log2)” value was -1.93.

As for “HMTVSLLQTRQRLQALADLGHYKGDLGAAWGPDAIEALKKAQATLGVTVDGKWGPQTEDAIQVALKVQ”, the “soluble fraction (log2)” value is -0.284. Take “HMEISTEVPLRGGTISEEALEALNRLPGVTASNIDGKSISVDVADNAELRVSDINQVLAVHSPDTRV”: the “soluble fraction (log2)” value is 0.209.

“HMEESTYQWNNFVRDFYASRVSAQYTNKLKVAAILWHHVKNTPQSKIYHDNLVSKYAEEINYFK”: the “soluble fraction (log2)” value was -2.51. As for “HMQLYSLEVLSKKKVDLIENNKNLINLYFNKENGEYSYRLIFKNRKELYQVKDTLDNSSDVVSIKLDL”, the “soluble fraction (log2)” value is -0.863. To “HMLHQSLVVNAASGRVTVSLDIVPDEDNPYAVLRATDDSDEPLAQVRVAPSFKLNRASALAWIESQFARP” belongs -0.821; to “HMTRVANIPYSEFLKLVETDKINDVSMVGKTISGHLDDGTKFSTYTPPNDPNLIDKLSKHNVIIKAGPE”, 0.0971; to “HMETAVMPDVMKLDSTTAIQALKDKGFATIETYEVKSDRPAGVVVRQSETADSVVALSKEILLGVSNGADY”, 0.304. Then “HMNRMKLLREQHNLSQTDLAKILNISRQSYNFYENEKRDPDTTMLIRIADFFNVSLDYLLGRTNN”, with -1.66; and “HMRSSAATMFGRIALKNKLVDEATLKKVMSELPAGADLGAVLVKQGLISEQHAEAIQKKITAHMKSAP”, with 0.273; and “HMKRLPMRKIRDVLRLSADGLSTRKIGVSLTIGRTTVQAYLDRAAEVDLSWPLPPEMSDTDLERLIYPR”, with -3.39.

For “HMGGTTLIAKQATVTGDIQFSSNLDIEGRVVGAISVEPGKEAMLHVVEGGSVEGEIRVPSAVINGKVTGDI”, the “soluble fraction (log2)” value turned out to be 0.101. Consider “HMGNTLAYSEFRQKVQEGAVKQVVLSEDRVTGELTNGDRFTANIVRDPELLKMLNDNNVKYDGKPT”, for which the “soluble fraction (log2)” value was 0.203. To “HMNPLHYKAAHWVREGLFDDLKSFVELETRINSIFEEKDRGDVFEIFIEGYRSFSKWRALVLRLA” belongs -0.28.

As to “HMTQTDINQIETLVHEGNKLAAVKLLMDTAHIGLKEAKDIIDNFFLGKQTDLQAAVAQVQTR”, the “soluble fraction (log2)” value was 0.123. Then “HMDFKKKIIESWADIAETLRGLTVDSNISDWTTKQKNAYETLADKAELAGLSIADLNSILVELGYM”, with -0.0868; and “HMNLGVIYSLKAEVRSEPNTFSTRLFEVHEGLKVSINQLENDWVEIELLDGKTGWISNDQIRLI”, with -2.12. Then “HMFEEPYLATYPVLIDPKLAFNVLDTMLEGLEVKMDQDEETGAISVLAPASIHTKITEYLDALSKQ”, with -0.159; and “HMSEVTYQETLRLLRRAIDVLPQQSRQIILLGLSGKNNNEVAEMLGISVNTVKTLKKGAYKSLRNSL”, with -1.66.

Turning to “HMLGITEGSLVRVIRSPNFGKIGTVAELPAELRMMESETMVRIAIVEIEGTNFEIPRSNLEVLET”, the “soluble fraction (log2)” value is -1.55. In the case of “HMNPNEVQIPDLVNKTEEEAEQILKDLKLKLVVKSEEYDENIEKGKIISQDPTYKENYKIKEHSEISVIIS”, the “soluble fraction (log2)” value is 0.214. “HMSKPIREVAYETLKNAIVTGEIPAGSRIVETEYAERMHISRTPLREALRKLERDGLVEYVVRRGVVVRAF”: the “soluble fraction (log2)” value was -1.54. For “HMHEYSRIYQQQWWDNATGADAYHVIHSARSRAAQDPEAARALEYLEEQFRIRYGVRTEDFLGYLHD”, the “soluble fraction (log2)” value is -0.411. “HMEFNDLNDDEKAILHIMYNTGEKMTTALAARITNRGRNFASKLLKSLVKKEILEWHGTSKQDRNQYYTLA”: the “soluble fraction (log2)” value is -0.0326. For the sequence “HMDSDMGQQLKTLLTVGTFMSSKELKAIAQQLGLKKPTDLKEWVELESGTQRIEGKPTKGYWIKMNDINN”, the “soluble fraction (log2)” value came to 0.159. Turning to “HMGSPVTAVMNRVLNETERQIVTLHVISGFKHREIAELLEKPVGTVLWTYNNALGKMRKAMQRE”, the “soluble fraction (log2)” value is -1.33. For the sequence “HMQDYISAEEAKSAALSASQVDSAGAAFSAAELGEKNGIPYYEVAFTADGLEYRYAIDAQTGTVIESSSSG”, the “soluble fraction (log2)” value came to 0.0366.

On to “HMGDYDHYVVKVEDTLLNWLVTNVTTMSRNKLKDILAGQGIKVNGKITTKYDYPLTPGMKIAISKTKR”, for which the “soluble fraction (log2)” value was -0.275. With “HMVETDQESSLIQAIYKYFEITGDNTFFDEKVGEKTVADRMEWAMDYLIQNRFSEEYGLIWGA”, the “soluble fraction (log2)” value was -0.2. With “HMTGEEVLIMLGEKMKLIRNYNGYSQRQIAEILKIERSTYASYETGRNRPDIFAVQRFAKIFNVSVDYIL”, the “soluble fraction (log2)” value is -0.118. For “HMSADISIGYNIPKGSVTVSAGGRTLQEGIDYDINYDLGTIKITNQAILNAGLPVQVNFENNAS”, the “soluble fraction (log2)” value was 0.149. Then “HMSVKLMEVKGASTVVSRQVREAVSIVFPTSSMRLDLVALKARIEGVDAVKRADVYLRNGILEIQIDER”, with -1.99; and “HMVSPFQQQIADKVHNEIIAAKFNYDNATNENERLLAQLQAKKARELANQYGLDMSSYGADTTAERS”, with 0.235; and “HMAEQVLHQKLAARRKELNSLVAQVARVRGIPHSHVHSGLRREAGGPPLAQATTDQVEARISLARKWLRA”, with -0.728.

Turning to “HMLGFELVGIRGNNPESTIIILERDDYRLVEQGQNINSSVIFSHIDGSRAYFFDGQTYTFLDI”, the “soluble fraction (log2)” value was -2.95.
